Patent US20210139579A1 (NBE THERAPEUTICS, published 2021)

Assays:
[1] = molecular target: T1, StrepII-tagged human ROR1-extracellular domain (human, UniProt Q01973 30-406); experiment: ELISA on coated strep-tagged hROR1, detected with anti-human Fc-gamma HRP
T1 construct: also called strep-tagged human ROR1; recombinant, purified hROR1
Method: (§1) Each well of a 96-well plate was coated with 100 μL of 2 μg/mL strep-tagged human ROR1 or ROR2 (from Example 5) in 0.1 M bicarbonate coating buffer (pH 9.6), and incubated for 12 h at 4° C.

[2] = molecular target: T2, Recombinant human twin strep-tagged ROR2 extracellular domain (human, UniProt Q01974 34-403); experiment: ELISA on coated twin strep-tagged hROR2
T2 construct: extracellular domain; also called strep-tagged human ROR2; recombinant, purified hROR2
T2 sequence (Q01974 other isoform, or with tags, fused parts or gaps): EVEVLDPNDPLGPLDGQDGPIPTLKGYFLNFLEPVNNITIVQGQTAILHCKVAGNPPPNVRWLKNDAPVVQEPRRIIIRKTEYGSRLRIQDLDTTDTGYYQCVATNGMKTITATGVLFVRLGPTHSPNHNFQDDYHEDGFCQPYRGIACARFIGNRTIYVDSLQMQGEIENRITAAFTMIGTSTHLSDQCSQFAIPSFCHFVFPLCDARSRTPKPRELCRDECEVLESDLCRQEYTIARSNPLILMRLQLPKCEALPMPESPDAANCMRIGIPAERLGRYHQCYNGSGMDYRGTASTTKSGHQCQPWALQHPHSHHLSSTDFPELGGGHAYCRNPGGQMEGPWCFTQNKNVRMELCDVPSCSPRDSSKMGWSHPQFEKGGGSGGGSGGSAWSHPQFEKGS
Method: as §1

[3] = molecular target: T3, human ROR1 (hROR1) on the cell surface (human, UniProt Q01973 30-937); experiment: flow cytometry on human cancer cell lines, 2A2 at 2 µg/mL
T3 construct: whole, on cells; Endogenous on the human lines 697, MDA-MB-468, HS-578T, A549 and HT-29; ectopically expressed on murine EMT-6 cells (clone 14); also called full-length ROR1 (NP_005003.2)
T3 sequence (Q01973 30-937): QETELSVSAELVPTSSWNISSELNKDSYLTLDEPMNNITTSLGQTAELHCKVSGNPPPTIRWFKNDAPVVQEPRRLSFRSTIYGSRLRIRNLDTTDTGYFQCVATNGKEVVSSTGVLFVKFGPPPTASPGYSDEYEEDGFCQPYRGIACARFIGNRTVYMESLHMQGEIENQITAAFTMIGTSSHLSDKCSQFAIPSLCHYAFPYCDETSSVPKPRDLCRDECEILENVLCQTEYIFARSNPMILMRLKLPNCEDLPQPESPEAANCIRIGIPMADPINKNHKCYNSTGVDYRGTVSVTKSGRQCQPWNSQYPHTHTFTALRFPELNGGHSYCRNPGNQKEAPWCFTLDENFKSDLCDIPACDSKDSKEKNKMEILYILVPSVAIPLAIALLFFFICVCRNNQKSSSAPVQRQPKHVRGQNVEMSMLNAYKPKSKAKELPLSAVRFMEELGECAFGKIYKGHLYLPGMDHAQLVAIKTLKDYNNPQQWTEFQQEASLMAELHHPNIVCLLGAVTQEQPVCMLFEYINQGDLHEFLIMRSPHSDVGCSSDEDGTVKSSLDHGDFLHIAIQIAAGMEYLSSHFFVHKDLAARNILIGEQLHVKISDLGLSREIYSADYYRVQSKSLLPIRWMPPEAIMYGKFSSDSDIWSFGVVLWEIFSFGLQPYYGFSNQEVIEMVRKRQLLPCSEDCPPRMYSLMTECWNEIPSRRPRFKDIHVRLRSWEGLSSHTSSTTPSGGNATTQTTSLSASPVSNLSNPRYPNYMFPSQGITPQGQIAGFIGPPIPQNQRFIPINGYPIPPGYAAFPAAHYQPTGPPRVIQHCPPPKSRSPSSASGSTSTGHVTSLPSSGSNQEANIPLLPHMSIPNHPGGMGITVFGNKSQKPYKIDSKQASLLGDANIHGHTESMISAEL

T1 sequence (Q01973 other isoform, or with tags, fused parts or gaps): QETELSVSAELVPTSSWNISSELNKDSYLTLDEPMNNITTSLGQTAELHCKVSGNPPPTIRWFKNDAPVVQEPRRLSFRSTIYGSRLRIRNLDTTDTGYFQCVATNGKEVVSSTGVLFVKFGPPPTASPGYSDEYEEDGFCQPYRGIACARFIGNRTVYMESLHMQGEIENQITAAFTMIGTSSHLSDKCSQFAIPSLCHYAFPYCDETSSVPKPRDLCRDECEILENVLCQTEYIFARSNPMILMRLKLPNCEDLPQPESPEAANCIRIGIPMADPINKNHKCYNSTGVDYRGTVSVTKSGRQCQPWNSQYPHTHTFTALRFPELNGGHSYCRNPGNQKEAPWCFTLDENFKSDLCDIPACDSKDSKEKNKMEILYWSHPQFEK

Binder | binding result [1] | binding result [2] | binding result [3]
ERR1-301 (mAb027) (antibody, human IgG1, V domains shown, Chimeric rabbit/human IgG1, lambda; not shown: Strep tag) VH: QEQLEESGGGLVTPGGSLTLTCTASGFTISTYHMSWVRQAPGKGLEWIGSIYAGSGSTYYASWVNGRFTISSNTTQNTVSLQMNSLTVADTATYFCARDHPSYGMDLWGPGTLVTVSS VL: SYELTQLPSVSVSLGQTARITCGGNSIGSKAVNWYQQKPGLAPGLLIYDDDERPSGVPDRFSASNSGDTATLTISGAQAEDEADYYCQLWDSSAVAYVFGGGTQLTVTG | binds | no binding | –
XBR1-402 (mAb031) (antibody, human IgG1, V domains shown, Chimeric rabbit/human IgG1, lambda; not shown: Strep tag) VH: QEQQKESGGGLFKPTDTLTLTCTASGFDISSYYMSWVRQAPGNGLEWIGAIGISGNAYYASWAKSRSTITRNTNLNTVTLKMTSLTAADTATYFCARDHPTYGMDLWGPGTLVTVSS VL: SYELTQLPSVSVSLGQTARITCEGNNIGSKAVHWYQQKPGLAPGLLIYDDDERPSGVPDRFSGSNSGDTATLTISGAQAGDEADYYCQVWDSSAYVFGGGTQLTVTG | binds | no binding | –
ERR1-324 (mAb034) (antibody, human IgG1, Chimeric rabbit/human IgG1, kappa; not shown: Strep tag) heavy: not shown light: ELVLTQTPSPVSAAVGGTVTINCQASQSVYGNNELAWYQQKPGQPPKLLIYRASILTSGVPSRFKGSGSGTQFTLTISNVQREDAATYYCLGGYVSQSYRAAFGGGTELEILRTVAAPSVFIFPPSDEQLKSGTASVVCLLNNFYPREAKVQWKVDNALQSGNSQESVTEQDSKDSTYSLSSTLTLSKADYEKHKVYACEVTHQGLSSPVTKSFNRGECGGGGGSLPETG | binds | no binding | –
ERR1-403 (mAb035) (antibody, human IgG1, V domains shown, Chimeric rabbit/human IgG1, lambda; not shown: Strep tag) VH: QEQLKESGRGLVQPGGSLKLSCKASGFDFSGWYMTWVRQAPGKGLEWIGTIGTTKGRTYYASWVNGRFTISSDNAQNTVDLQMNSLTAADRATYFCVRGSDYFDLWGPGTLVTISS VL: SYELTQLPSVSVSLGQTARITCGGNSIGSKAVNWYQQKPGLAPGLLIYDDDERPSGVPARFSGSNSGDTATLTISGAQAGDEADYYCQLWDSSAGAYVFGGGTQLTVTG | binds | no binding | –
ERR1-Top43 (mAb036) (antibody, human IgG1, V domains shown, Chimeric rabbit/human IgG1, lambda; not shown: Strep tag) VH: QSLEESGGRLVTPGTPLTLTCTVSGFSLSSYWMSWVRQAPGKGLEWIGAIYGSGNTYYASWAKGRFTISKTSTTVDLKITSPTTEDTATYFCARDVHSTATDLWGPGTLVTISS VL: SYELTQLPSVSVSLGQTARITCGGNNIGSKAVNWYQQKPGLAPGLLIYNDDERPSGVPDRFSGSNSGDTATLTISGAQAGDEADYYCQLWDSSAGAYVFGGGTQLTVTG | binds | no binding | –
2A2 (mAb066) (antibody, human IgG1, IgG with human IgG1 and kappa constant regions; also called anti-human ROR1 antibody 2A2; not shown: Strep tag) heavy: not shown light: DIVMTQSQKIMSTTVGDRVSITCKASQNVDAAVAWYQQKPGQSPKLLIYSASNRYTGVPDRFTGSGSGTDFTLTISNMQSEDLADYFCQQYDIYPYTFGGGTKLEIKRTVAAPSVFIFPPSDEQLKSGTASVVCLLNNFYPREAKVQWKVDNALQSGNSQESVTEQDSKDSTYSLSSTLTLSKADYEKHKVYACEVTHQGLSSPVTKSFNRGECGGGGGSLPETG | – | – | binds
ERR1-306 (mAb033) (antibody, human IgG1, V domains shown, Chimeric rabbit/human IgG1, lambda; not shown: Strep tag) VH: QEQLKESGGGLVQPGGSLKLSCKASGFDLSNYGVSWVRQAPGKGLEWIGYIDPTFDYTYYASWVNGRFSISRENTQNTVSLQINSLTPADTATYFCARWVYGVDDYGDGNWLDLWGQGTLVTISS VL: QFVLTQSPSVSAALGASAKLTCTLSSAHKTYTIDWYQQQQGEAPRYLMELKSDGSYTKGTGVPDRFSGSSSGADRYLIIPSVQADDEADYYCGTDYSGGYVFGGGTQLTVTG | – | no binding | –
